Where a chain is given by its changes, count along the chain named. Names may count otherwise.
Key:
[1] = molecular target: T1, recombinant human LAG-3-his protein (Novoprotein) (human, UniProt P18627 23-450); test: BLI Octet, FIT-Ig captured, antigen analyte
T1 construct: Bought; also called huLAG-3; not shown: His tag
T1 sequence (looked up): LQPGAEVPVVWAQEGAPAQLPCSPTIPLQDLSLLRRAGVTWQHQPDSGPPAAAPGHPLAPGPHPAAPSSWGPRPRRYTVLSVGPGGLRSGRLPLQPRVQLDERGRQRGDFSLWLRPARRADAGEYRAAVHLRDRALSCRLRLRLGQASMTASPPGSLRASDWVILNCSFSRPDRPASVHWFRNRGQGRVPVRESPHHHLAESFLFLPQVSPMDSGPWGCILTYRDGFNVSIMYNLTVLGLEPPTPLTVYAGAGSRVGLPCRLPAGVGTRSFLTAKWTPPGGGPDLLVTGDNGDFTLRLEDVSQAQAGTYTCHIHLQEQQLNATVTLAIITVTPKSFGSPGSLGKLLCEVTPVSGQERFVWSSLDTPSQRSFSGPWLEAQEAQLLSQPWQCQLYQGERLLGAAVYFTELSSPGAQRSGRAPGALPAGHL

[2] = molecular target: T2, human PD-1-His protein (human, UniProt Q15116 25-167, limits assumed); test: BLI Octet, FIT-Ig captured, antigen analyte
T2 construct: also called huPD-1; not shown: His tag

[3] = molecular target: T3, human PD-1 expressed on cells (human, UniProt Q15116 25-288); test: cell RBA FACS, CHO-K1-huPD1; competitor biotin-PD-L1/Fc
T3 construct: whole, on cells; also called CHO-K1/huPD-1; CHO-K1-hPD-1 cells
Procedure: (§1) All 15 humanized antibodies and the chimeric antibody (mAb709c) were characterized by binding ELISA and cell-based RBA. For cell-based RBA, 2×10⁵ cells/well of CHO-K1-huPD1 cells were added to a pre-blocked 96-well round-bottomed plate and after washing, 50 μl antibodies with diluted concentration ranging from 0.064 nM to 200 nM were added to each well. Next, 50 μl of 60 μg/ml biotinylated PD-L1/Fc or biotinylated PD-L2/Fc protein were added. After gentle mixing and incubation at 4° C., the cells were washed and stained by Alexa Fluor™ 488 streptavidin solution (1:1000, ThermoFisher Scientific; Cat. No. S32354). Signals were readout by FACS and curves were fitted by GraphPad software. […] The association and dissociation rate constants, k (M⁻¹ s⁻¹) and koff(s⁻¹), respectively, were determined by making kinetic binding measurements at five different concentrations of human PD-1-His protein at a continuous flow rate of 30 μl/min. The equilibrium dissociation constant KD (M) of the reaction between antibodies and related target proteins was calculated from the kinetic rate constants using the formula KD=koff/kₒₙ. HumAb709-8 had minimal back-mutation(s) while maintaining to the greatest extent the affinity of the parental variable domains on chimeric mAb709c.

[4] = molecular target: T3, human PD-1 expressed on cells; test: cell RBA FACS, CHO-K1-huPD1; competitor biotin-PD-L2/Fc
Procedure: as §1

[5] = molecular target: T3, human PD-1 expressed on cells; test: cell RBA FACS; competitor PD-L1/Fc
[6] = molecular target: T3, human PD-1 expressed on cells; test: cell RBA FACS; competitor PD-L2/Fc
[7] = molecular target: T2, human PD-1-His protein; test: SPR Biacore

T2 sequence (Q15116 25-167 limits assumed): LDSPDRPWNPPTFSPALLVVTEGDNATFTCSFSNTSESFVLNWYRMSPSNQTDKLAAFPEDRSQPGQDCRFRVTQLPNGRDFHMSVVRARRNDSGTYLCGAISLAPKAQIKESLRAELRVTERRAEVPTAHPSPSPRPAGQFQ
T3 sequence (Q15116 25-288): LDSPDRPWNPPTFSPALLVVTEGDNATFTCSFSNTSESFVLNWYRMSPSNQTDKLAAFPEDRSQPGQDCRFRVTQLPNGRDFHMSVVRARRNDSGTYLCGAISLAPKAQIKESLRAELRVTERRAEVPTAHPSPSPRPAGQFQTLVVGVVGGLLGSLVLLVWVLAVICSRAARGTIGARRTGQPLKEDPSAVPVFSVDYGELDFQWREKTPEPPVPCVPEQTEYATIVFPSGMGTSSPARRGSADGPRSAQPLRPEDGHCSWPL

B1: FIT107-1-7b-2 (bispecific antibody, human IgG1, kappa, L234A L235A)
chain 1: not shown
chain 2: EVQLVQSGAEVKKPGATVKLSCTASGFNIKDDYMHWVKQRPEQGLDWIGWIVPRNANTVYASKFQGKATITADTSTNTAYLELSSLRSEDTAVYYCTVYGDYWGQGTTVTVSSASTKGPSVFPLAPSSKSTSGGTAALGCLVKDYFPEPVTVSWNSGALTSGVHTFPAVLQSSGLYSLSSVVTVPSSSLGTQTYICNVNHKPSNTKVDKKVEPKSC
chain 3: not shown
notes: FIT-Ig hexamer; outer anti-LAG-3 (HumAb747V-72 with G55A), inner anti-PD-1 (HumAb713-7)
[1]
  Kd: 1.41 nM
  koff: 0.000246 s⁻¹
  kon: 174000 M⁻¹ s⁻¹
[2]
  Kd: 7.9 nM
  koff: 0.000827 s⁻¹
  kon: 105000 M⁻¹ s⁻¹

B2: HumAb709-3 (antibody, human IgG1, kappa, L234A L235A, V domains shown)
VH: EVQLVESGGGLVQPGGSLRLSCAASGFTFSFYTMSWVRQAPGKRLEWVATISGGGRDTYYPDSVKGRFTISRDNAKNSLYLQMNSLRAEDTAVYYCAGQGGNYLFAYWGQGTLVTVSS
VL: DIQMTQSPSSLSASVGDRVTITCKASQDVNTVVAWYQQKPGKAPKLLIYWASTRHTGVPSRFSGSGSGTDYTLTISSLQPEDFATYYCQQHYTTPYTFGGGTKVEIKR
notes: humanized mAb709
[3]
  IC50: 1.25 nM
[4]
  IC50: 1.64 nM

B3: HumAb709-4 (antibody, human IgG1, kappa, L234A L235A, V domains shown)
VH: B2 VH with R44G, G98R
VL: B2 VL with Y49S
notes: humanized mAb709
[3]
  IC50: 0.78 nM
[4]
  IC50: 1.68 nM

B4: HumAb713-6 (antibody, human IgG1, kappa, L234A L235A, V domains shown)
VH: EVQLVESGGGLVQPGGSLRLSCAASGFTFSDYGMHWVRQAPGKGLEWVSYISSGSYTIYYADTVKGRFTISRDNAKNSLYLQMNSLRDEDTAVYYCAKRGGSSHVNVMDYWGQGTTVTVSS
VL: DIQMTQSPSSLSASVGDRVTITCKASDHINNWLAWYQQKPGKAPKLLIYGATSLETGVPSRFSGSGSGTDYTFTISSLQPEDIATYYCQQYWSPPYTFGGGTKVEIKR
notes: humanized mAb713; also called HurnAb713-6
[5]
  IC50: 1.04 nM
[6]
  IC50: 1.46 nM

B5: HumAb713-2 (antibody, human IgG1, kappa, L234A L235A, V domains shown)
VH: B4 VH
VL: B4 VL with Y71F
notes: humanized mAb713
[5]
  IC50: 1.71 nM
[6]
  IC50: 3.13 nM

B6: HumAb713-4 (antibody, human IgG1, kappa, L234A L235A, V domains shown)
VH: B4 VH with F29S, S49A
VL: B4 VL with Y71F
notes: humanized mAb713
[5]
  IC50: 1.06 nM
[6]
  IC50: 2.24 nM

B7: HumAb713-5 (antibody, human IgG1, kappa, L234A L235A, V domains shown)
VH: B4 VH with K98R
VL: B4 VL
notes: humanized mAb713
[5]
  IC50: 0.91 nM
[6]
  IC50: 2.95 nM

B8: HumAb713-8 (antibody, human IgG1, kappa, L234A L235A, V domains shown)
VH: B4 VH with F29S, S49A
VL: B4 VL
notes: humanized mAb713; also called HurnAb713-8
[5]
  IC50: 1.05 nM
[6]
  IC50: 1.91 nM

B9: HumAb713-9 (antibody, human IgG1, kappa, L234A L235A, V domains shown)
VH: B4 VH with K98R
VL: B4 VL with Y49S
notes: humanized mAb713
[5]
  IC50: 1.2 nM
[6]
  IC50: 2 nM

B10: HumAb713-10 (antibody, human IgG1, kappa, L234A L235A, V domains shown)
VH: B4 VH
VL: B4 VL with Y49S
notes: humanized mAb713
[5]
  IC50: 0.8 nM
[6]
  IC50: 1.23 nM

B11: HumAb713-12 (antibody, human IgG1, kappa, L234A L235A, V domains shown)
VH: B4 VH with F29S, S49A
VL: B4 VL with Y49S
notes: humanized mAb713
[5]
  IC50: 0.94 nM
[6]
  IC50: 1.59 nM

B12: HumAb713-13 (antibody, human IgG1, kappa, L234A L235A, V domains shown)
VH: B4 VH with K98R
VL: B4 VL with Y49S, T69K
notes: humanized mAb713
[5]
  IC50: 0.7 nM
[6]
  IC50: 2.13 nM

B13: HumAb713-14 (antibody, human IgG1, kappa, L234A L235A, V domains shown)
VH: B4 VH
VL: B4 VL with Y49S, T69K
notes: humanized mAb713
[5]
  IC50: 0.91 nM
[6]
  IC50: 1.45 nM

B14: HumAb713-15 (antibody, human IgG1, kappa, L234A L235A, V domains shown)
VH: B4 VH with F29S
VL: B4 VL with Y49S, T69K
notes: humanized mAb713
[5]
  IC50: 0.88 nM
[6]
  IC50: 1.65 nM

B15: HumAb713-16 (antibody, human IgG1, kappa, L234A L235A, V domains shown)
VH: B4 VH with F29S, S49A
VL: B4 VL with Y49S, T69K
notes: humanized mAb713
[5]
  IC50: 0.65 nM
[6]
  IC50: 1.63 nM

B16: HumAb703-12 (antibody, human IgG1, kappa, L234A L235A, V domains shown)
VH: EVQLQESGPGLVKPSETLSLTCAVSGYSISTGYYWNWIRQPPGKGLEWIGYMSYDGNNNYNPSLKNRITISRDTSKNQFSLKLSSVTAADTAVYYCARDRGTTILGGTMDYWGQGTTVTVSS
VL: DIQMTQSPSSLSASVGDRVTITCKASQSVSNDVAWYQQKPGKAPKLLIYYAFYRYTGVPDRFSGSGYGTDFTLTISSLQPEDFATYYCQQDYSSPWTFGGGTKVEIKR
notes: humanized mAb703
[7]
  Kd: 9 nM
  koff: 0.00159 s⁻¹
  kon: 177000 M⁻¹ s⁻¹

B17: HumAb703-11 (antibody, human IgG1, kappa, L234A L235A, V domains shown)
VH: B16 VH with I68V
VL: B16 VL
notes: humanized mAb703
[7]
  Kd: 9.37 nM
  koff: 0.00176 s⁻¹
  kon: 187000 M⁻¹ s⁻¹

B18: HumAb703-13 (antibody, human IgG1, kappa, L234A L235A, V domains shown)
VH: B16 VH with I49M
VL: B16 VL
notes: humanized mAb703
[7]
  Kd: 10.6 nM
  koff: 0.00154 s⁻¹
  kon: 145000 M⁻¹ s⁻¹

B19: HumAb703-18 (antibody, human IgG1, kappa, L234A L235A, V domains shown)
VH: B16 VH with I49M
VL: B16 VL with A43S, Y87F
notes: humanized mAb703
[7]
  Kd: 18.9 nM
  koff: 0.00124 s⁻¹
  kon: 65700 M⁻¹ s⁻¹

B20: HumAb703-22 (antibody, human IgG1, kappa, L234A L235A, V domains shown)
VH: B16 VH
VL: B16 VL with D1S, Q3V, A43S, S63T, Y87F
notes: humanized mAb703; also called HurnAb703-22
[7]
  Kd: 6.94 nM
  koff: 0.00159 s⁻¹
  kon: 229000 M⁻¹ s⁻¹

B21: mAb703c (antibody, V domains shown)
VH: DVQLQESGPGLVKPSQSLSLTCSVTGYSITTGYYWNWIRQFPGNKLEWMGYMSYDGNNNYNPSLKNRISITRDTSKNQFLLRLNSVTTEDTATYFCARDRGTTILGGTMDYWGQGTSVTVS
VL: SIVMTQTPKFLFVSAGDRVTIACKASQSVSNDVAWYQQKPGQSPKLLIYYAFYRYTGVPDRFTGSGYGTDFTFTISTVQAEDLAVYFCQQDYSSPWTFGGGTKLEIK
[7]
  Kd: 2.68 nM
  koff: 0.000966 s⁻¹
  kon: 359000 M⁻¹ s⁻¹

B22: FIT107-1-7a-1 (bispecific antibody, human IgG1, kappa, L234A L235A)
chain 1: not shown
chain 2: EVQLVESGGGLVQPGGSLRLSCAASGFTSSDYGMHWVRQAPGKGLEWVSYISSGSYTIYYADTVKGRFTISRDNAKNSLYLQMNSLRDEDTAVYYCAKRGGSSHVNVMDYWGQGTTVTVSSASTKGPSVFPLAPSSKSTSGGTAALGCLVKDYFPEPVTVSWNSGALTSGVHTFPAVLQSSGLYSLSSVVTVPSSSLGTQTYICNVNHKPSNTKVDKKVEPKSC
chain 3: DIQMTQSPSSLSASVGDRVTITCRASQEISGYLSWLQQKPGGAIKRLIYAASALDSGVPSRFSGSRSGSDYTLTISSLQPEDFADYYCLQYASYPLTFGQGTKLELKRTVAAPSVFIFPPSDEQLKSGTASVVCLLNNFYPREAKVQWKVDNALQSGNSQESVTEQDSKDSTYSLSSTLTLSKADYEKHKVYACEVTHQGLSSPVTKSFNRGEC
notes: FIT-Ig hexamer; outer anti-PD-1 (HumAb713-7), inner anti-LAG-3 (HumAb747V-67 with G55A)
[1]
  Kd: 0.732 nM
  koff: 0.000124 s⁻¹
  kon: 169000 M⁻¹ s⁻¹
[2]
  Kd: 3.04 nM
  koff: 0.000538 s⁻¹
  kon: 177000 M⁻¹ s⁻¹

B23: FIT107-1-7a-2 (bispecific antibody, human IgG1, kappa, L234A L235A)
chain 1: not shown
chain 2: B22 chain 2
chain 3: B22 chain 3 with S56L
notes: FIT-Ig hexamer; outer anti-PD-1 (HumAb713-7), inner anti-LAG-3 (HumAb747V-72 with G55A)
[1]
  Kd: 1.22 nM
  koff: 0.000128 s⁻¹
  kon: 105000 M⁻¹ s⁻¹
[2]
  Kd: 3.17 nM
  koff: 0.000526 s⁻¹
  kon: 166000 M⁻¹ s⁻¹

B24: FIT107-1-7a-3 (bispecific antibody, human IgG1, kappa, L234A L235A)
chain 1: not shown
chain 2: B22 chain 2
chain 3: B22 chain 3 with A53T
notes: FIT-Ig hexamer
[1]
  Kd: 1.47 nM
  koff: 0.000134 s⁻¹
  kon: 91000 M⁻¹ s⁻¹
[2]
  Kd: 3.01 nM
  koff: 0.000628 s⁻¹
  kon: 208000 M⁻¹ s⁻¹

— patent US20210188980A1 (SHANGHAI EPIMAB BIOTHERAPEUTICS, published 2021)
